The numbers were not newly measured in PMC2775921, which cites them from elsewhere.

One may read the pKd as the negative decadic logarithm of the Kd, by convention in mol/L.

pKd: −log10 of the molar value. Where two headings read alike, the source gives them in different places.

In data set [1] the target is IL-2 (Homo sapiens) (UniProt P60568).
The target is the same in data set [2]. This is another data set of the same source.

Chain of UniProt P60568 (P60568 21-153): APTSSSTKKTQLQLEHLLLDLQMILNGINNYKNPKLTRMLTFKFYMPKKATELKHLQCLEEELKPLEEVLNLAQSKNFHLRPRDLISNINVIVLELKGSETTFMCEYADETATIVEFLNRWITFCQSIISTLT

As to “CD25 (membrane α-chain) (from UniProt P01589)”, in data set [1], the pKd was 8.00.

Turning to soluble CD25 (from UniProt P01589), in data set [2], the pKd is 7.52.
